The values below come from patent US20250011739, “ENGINEERED CAS PROTEIN AND USE THEREOF” (SHANDONG SHUNFENG BIOTECHNOLOGY CO.LTD., published 2025).

Changes are numbered by the printed parent chain.

What all share (test): cell_activity; PAM ATG; GFP reporter in CHO cells
One data set addresses T1, Cas12j19 WT.
T1 chain: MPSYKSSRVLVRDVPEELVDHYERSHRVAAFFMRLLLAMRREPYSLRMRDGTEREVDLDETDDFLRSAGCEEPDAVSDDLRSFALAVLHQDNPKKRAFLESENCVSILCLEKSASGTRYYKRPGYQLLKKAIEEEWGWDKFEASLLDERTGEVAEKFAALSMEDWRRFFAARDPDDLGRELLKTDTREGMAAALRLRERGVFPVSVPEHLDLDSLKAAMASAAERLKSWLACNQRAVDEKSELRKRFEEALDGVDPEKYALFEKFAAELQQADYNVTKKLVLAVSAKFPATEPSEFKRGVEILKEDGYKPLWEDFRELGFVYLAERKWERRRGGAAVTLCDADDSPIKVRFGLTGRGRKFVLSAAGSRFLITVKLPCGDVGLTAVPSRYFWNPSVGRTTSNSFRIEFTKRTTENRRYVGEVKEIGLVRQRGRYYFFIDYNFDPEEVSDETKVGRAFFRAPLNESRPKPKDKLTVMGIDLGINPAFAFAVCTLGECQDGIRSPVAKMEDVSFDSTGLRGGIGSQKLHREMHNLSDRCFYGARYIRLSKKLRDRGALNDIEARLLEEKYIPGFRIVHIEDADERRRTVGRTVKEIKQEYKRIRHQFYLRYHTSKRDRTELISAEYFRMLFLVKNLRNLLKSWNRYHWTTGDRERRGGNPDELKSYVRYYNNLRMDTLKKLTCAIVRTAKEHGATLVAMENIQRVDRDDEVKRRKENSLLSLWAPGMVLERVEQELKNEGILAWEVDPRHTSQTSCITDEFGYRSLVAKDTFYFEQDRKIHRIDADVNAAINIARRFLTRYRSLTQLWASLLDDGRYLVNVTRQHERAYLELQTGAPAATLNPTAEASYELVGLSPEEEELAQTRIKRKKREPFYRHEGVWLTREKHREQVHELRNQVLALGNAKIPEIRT
From the text: (§1) With reference to (Yang, Yi, et al. “Highly efficient and rapid detection of the cleavage activity of Cas9/gRNA via a fluorescent reporter.” Applied biochemistry and biotechnology 180.4 (2016): 655-667.), a fluorescent reporter system for verification of Cas12j19 cleavage was constructed, where a fluorescent reporter vector carried an RFP and a non-luminous GFFP, and a Cas vector carried a CFP. A target FUT8-3: […] (SEQ ID NO: 28) on a GFFP sequence was selected for testing, where an underlined part was a PAM sequence. A DR sequence was […] (SEQ ID NO: 29). 48 h after a CHO cell was transfected, a proportion of GFP fluorescence in CFP and RFP fluorescence was determined by FCM to determine an editing efficiency.
(§2) In this example, in SEQ ID NO: 19, an amino acid 100 was mutated into K, an amino acid 400 was mutated into R, and an amino acid 763 was mutated into R to obtain a three site-mutated protein E100K-S400R-L763R; and in SEQ ID NO: 19, an amino acid 100 was mutated into K, an amino acid 400 was mutated into R, an amino acid 763 was mutated into R, and an amino acid 45 was mutated into T to obtain a four site-mutated protein E100K-S400R-L763R-S45T.

For data set [1], the target named is T2, Cas12j19 E100K-S400R-L763R (E100K,S400R,L763R).
T2 chain: T1 chain with E100K, S400R, L763R
From the text: as §1, §2

The target in the data set “enCas-SF02 (Cas12j19 …)” is T3, enCas-SF02 (Cas12j19 E100K-S400R-L763R-S45T) (E100K,S400R,L763R,S45T).
T3 chain: T1 chain with S45T, E100K, S400R, L763R
From the text: as §1, §2

B1: Cas12j19 FUT8-3 guide (DR + spacer, order inferred) ; FUT8-3 target (ssRNA ; dsDNA)
RNA: GUGCUGCUGUCUCCCAGACGGGAGGCAGAACUGCACGAGGCUGUCUACAAUGGGGA
DNA 1: ATGGAGGCTGTCTACAATGGGGA
DNA 2: TCCCCATTGTAGACAGCCTCCAT
Turning to B1, the results for the activity (with Cas12j19 WT; in data set [1]; with enCas-SF02 (Cas12j19 …)) were roughly 6%, roughly 90% and roughly 90%, respectively.
